In the DeepSol protein solubility set:

Assay: soluble on expression in E. coli; label from the status in PepcDB or PDB records

| Sequence | soluble on expression in E. coli |
| --- | --- |
| MSLTYYFSGTIDRVIFENTSNFFKIILLEIDDTDSDFDDFEIIVTGTIADVIEGENYTFWGELTQHPKYGQQLKVERYQRAKPSSAGLIKYFSSQHFKGIGKKTAEKIIHLYGDDPIDNILEDPDKLESISGLSKANRENLVSKLRLNYGAEQILAKLAEYGLNNKTAVQIFERYKEESLTVITENPYQLVEDIQGIGFKMADKLAEQVGINSDAPQRFRAALVHTLLETSIDKGDTYIEAKELLEKSLFILEEVRQVELDPSQIAQELTQLISEDKVQNIGTKIFDNTLFYAESGIHKHLTRILDRPLEKEISSQDIQTEIKHIQAEFNINYDKAQKNAIQKAIQSKVFLLTGGPGTGKTTVINGIIKAYANLHQIDLQKSDRPIILAAPTGRAARRMNELTGLPSATIHRHLGLNGDSEYQALDDFLDCDLIIIDEFSMVDTWLANQLFSAIASNTQVIIVGDSDQLPSVGPGQILADLLKINRLPQVSLTKIFRQSEDSTIVTLANQIRQGRLPTDFTAKKADRSYFEAQSTHIPQMIQKIVSSALKSGIDAQEIQILAPMYRGQAGITHLNKLMQDLLNPLNNQLEFQFNDLHFRKGDKVLHLINDAQINVFNGDIGYITDLIPAKYTESKQDEMILDFDGTEINYPRNEWLKITLAYAMSIHKSQGSEFKVVILPVTRQSGRLLQRNLIYTAITRSKSKLVMLGEIAAFDNAIKNEGTKRKTYLIERFKKDECSGHHNTEKNKQGVKESAAILKEDFILTERNILTIDPMIGLSQADIDLFFKKEGHHHHHH | soluble |
| MSNTDNSDKNTKPTGYRPPQTDFNTEFGNNLDYPRLGSVSFRRGTLTDNQESLWDANWPILGKDLTDAEDQRIDVAEWFGRCGHKTILEIGSGTGTSTAAMAPLEADTNIIAVELYKPGLAKLLGAVVRGDISNVRMIRGDGVEVLTRMLPEESLDGVRIYFPDPWPKARHHKRRIIQSGVLNLIASRLKPGGVLHVATDHADYAEWITELVNVEPQLEFMGWPWDECPQLTDRQVITKFEGKGLDKDHTITEFLWRRK | not soluble |
| MILNIRDHYLPREYWKYISLHRGPIYGYKLEAYIGADNCIHYKEIPKNPDDTLRENETIYI | not soluble |
| MQIFPYSDDPNKRYHTWNYALRQQFGEKIFKVPIDGGFDCPNRDGTVAKGGCTFCSVSGSGDMIVAPSDPLPLQFQKEIQLMHQKWPTVDQYIVYFQNFTNTHAPVDVIRHRFEQVVNEKGVVGLSIGTRPDCLPDEVVNYLAELNERFYLWVELGLQTTFEETSAAINRAHDYQTYLDGVAKLRKHGIRVCTHLINGLPGETPAMMRENVRRTIQDSDIQGIKLHLLHLMTNTKMMRDYNEGRLQLMSKEAYVSVICDQLEMIPPEIVIHRLTGDAPFETIIGPMWSLKKWEVLNAIDAEMKRRNSYQGKYTVISGKEVFN | not soluble |
| MKQFLITGGTGMVGSQLVNKLKNRDVHITILTRSDKQSDDPKISYVNWSKDGWMSQVPDIDVVVNLAGATLNKRWTPSYKQLIMTSRIQSTQSLVDLFSQREHKPEVLFNASAMGYYPPSLYHTYTEKYQTHPFDFLSDVVYQWERFAKRFESFGTRVVLGRFSMILSNDGGALQTMKLPYKFFVGGKLGSGFQWYSWIHINDLVRAILFTIDNPNAKGPFNMAAPIAERQNLFGYTLARVMHRPHETWVPSFLMRLALGEMSTVVLDTQKVLPNKLDALGFTFNYSNLKIAFEDLIDALEHHHHHH | not soluble |
| MNTISGTHFNYHQVCRRKLWLFSAGITMEHTSDLVYEGKLIHETTYQQRPERYQELELDGIKIDFYDAKNRVVHEVKKSNKISPAHRLQLLYYLYVLERNGVLGATGILEYPTLRKKEEVILSDIDRERIREIEQEILQIISHEDCPPVIDSGICKNCSYYEFCFSGEEQ | not soluble |
| KGATFKEAEEHYHINALYLLAHSALESNWGRSKIAKDKNNFFGITAYDTTPYLSAKTFDDVDKGILGATKWIKENYIDRGRTFLGNKASGMNVEYASDPYWGEKIASVMMKINEKLGGKD | not soluble |
| QIVLTQSPAIMSASPGEKVTMTCSASSSVSYMHWYQQKSGTSPKIWIYESSKLASGVPVRFSGSGSGTSYSLTISSMEAEDVATYYCQQWSSHPHPLTFGAGTKLELKRADAAPTVSIFPPSSEQLTSGGASVVCFLNNFYPKDINVKWKIDGSERQNGVLNSWTDQDSKDSTYSMSSTLTLTKDEYERHNSYTCEATHKTSTSPIVKSFNRNEC | soluble |
